{"source": "the Human Domainome abundance scans (Beltran et al. 2025)", "parents": {"B1": {"name": "RNA-binding E3 ubiquitin-protein ligase MEX3C, residues 325 to 391; numbered along this chain, Q5U5Q3 (parent)", "chain": "GQTTVQVRVPYRVVGLVVGPKGATIKRIQQQTHTYIVTPSRDKEPVFEVTGMPENVDRAREEIEMHI"}}, "note": "± gives the uncertainty stated by the source.", "data": [{"variants_of": "B1", "test": "abundance fitness (aPCA) (normalised: wild type 0, dead -1); higher = more abundant; growth selection in yeast, the domain comes from the species named", "details": "Homo sapiens", "values": [{"variant": "GQTTVQVRVPYRVVGLVVGPKGATIKRIQQQTHTYIVTPSRDKEPVFEVTGMPENVDRAREESEMHI", "note": "[I63S]", "abundance fitness": "-0.894 ± 0.15"}, {"variant": "GQTTVQVRVPYRVVGLVVGPKGATIKRIQQQTHTYIVTPSRDKEPVFEVTGMPENVDRAREEVEMHI", "note": "[I63V]", "abundance fitness": "-0.512 ± 0.077"}, {"variant": "GQTTVQVRVPYRVVGLVVGPKGATIKRIQQQTHTYIVTPSRDKEPVFEVTGMPENVDRAREEWEMHI", "note": "[I63W]", "abundance fitness": "-0.768 ± 0.16"}, {"variant": "GQTTVQVRVPYRVVGLVVGPKGATIKRIQQQTHTYIVTPSRDKEPVFEVTGMPENVDRAREEYEMHI", "note": "[I63Y]", "abundance fitness": "-0.748 ± 0.19"}, {"variant": "GQTTVQVRVPYRVVGLVVGPKGATIKRIQQQTHTYIVTPSRDKEPVFEVTGMPENVDRAREEICMHI", "note": "[E64C]", "abundance fitness": "-0.309 ± 0.18"}, {"variant": "GQTTVQVRVPYRVVGLVVGPKGATIKRIQQQTHTYIVTPSRDKEPVFEVTGMPENVDRAREEIDMHI", "note": "[E64D]", "abundance fitness": "-0.015 ± 0.12"}, {"variant": "GQTTVQVRVPYRVVGLVVGPKGATIKRIQQQTHTYIVTPSRDKEPVFEVTGMPENVDRAREEIFMHI", "note": "[E64F]", "abundance fitness": "-0.029 ± 0.093"}, {"variant": "GQTTVQVRVPYRVVGLVVGPKGATIKRIQQQTHTYIVTPSRDKEPVFEVTGMPENVDRAREEIGMHI", "note": "[E64G]", "abundance fitness": "-0.606 ± 0.065"}, {"variant": "GQTTVQVRVPYRVVGLVVGPKGATIKRIQQQTHTYIVTPSRDKEPVFEVTGMPENVDRAREEIHMHI", "note": "[E64H]", "abundance fitness": "-0.222 ± 0.21"}, {"variant": "GQTTVQVRVPYRVVGLVVGPKGATIKRIQQQTHTYIVTPSRDKEPVFEVTGMPENVDRAREEIKMHI", "note": "[E64K]", "abundance fitness": "-0.193 ± 0.14"}, {"variant": "GQTTVQVRVPYRVVGLVVGPKGATIKRIQQQTHTYIVTPSRDKEPVFEVTGMPENVDRAREEILMHI", "note": "[E64L]", "abundance fitness": "0.056 ± 0.057"}, {"variant": "GQTTVQVRVPYRVVGLVVGPKGATIKRIQQQTHTYIVTPSRDKEPVFEVTGMPENVDRAREEIMMHI", "note": "[E64M]", "abundance fitness": "-0.006 ± 0.089"}, {"variant": "GQTTVQVRVPYRVVGLVVGPKGATIKRIQQQTHTYIVTPSRDKEPVFEVTGMPENVDRAREEIPMHI", "note": "[E64P]", "abundance fitness": "-0.435 ± 0.16"}, {"variant": "GQTTVQVRVPYRVVGLVVGPKGATIKRIQQQTHTYIVTPSRDKEPVFEVTGMPENVDRAREEISMHI", "note": "[E64S]", "abundance fitness": "-0.281 ± 0.081"}, {"variant": "GQTTVQVRVPYRVVGLVVGPKGATIKRIQQQTHTYIVTPSRDKEPVFEVTGMPENVDRAREEITMHI", "note": "[E64T]", "abundance fitness": "-0.779 ± 0.42"}, {"variant": "GQTTVQVRVPYRVVGLVVGPKGATIKRIQQQTHTYIVTPSRDKEPVFEVTGMPENVDRAREEIVMHI", "note": "[E64V]", "abundance fitness": "-0.66 ± 0.11"}, {"variant": "GQTTVQVRVPYRVVGLVVGPKGATIKRIQQQTHTYIVTPSRDKEPVFEVTGMPENVDRAREEIWMHI", "note": "[E64W]", "abundance fitness": "-0.179 ± 0.07"}, {"variant": "GQTTVQVRVPYRVVGLVVGPKGATIKRIQQQTHTYIVTPSRDKEPVFEVTGMPENVDRAREEIYMHI", "note": "[E64Y]", "abundance fitness": "-0.271 ± 0.16"}, {"variant": "GQTTVQVRVPYRVVGLVVGPKGATIKRIQQQTHTYIVTPSRDKEPVFEVTGMPENVDRAREEIEAHI", "note": "[M65A]", "abundance fitness": "0.142 ± 0.06"}, {"variant": "GQTTVQVRVPYRVVGLVVGPKGATIKRIQQQTHTYIVTPSRDKEPVFEVTGMPENVDRAREEIECHI", "note": "[M65C]", "abundance fitness": "-0.285 ± 0.11"}, {"variant": "GQTTVQVRVPYRVVGLVVGPKGATIKRIQQQTHTYIVTPSRDKEPVFEVTGMPENVDRAREEIEDHI", "note": "[M65D]", "abundance fitness": "-0.223 ± 0.17"}, {"variant": "GQTTVQVRVPYRVVGLVVGPKGATIKRIQQQTHTYIVTPSRDKEPVFEVTGMPENVDRAREEIEFHI", "note": "[M65F]", "abundance fitness": "-0.264 ± 0.23"}, {"variant": "GQTTVQVRVPYRVVGLVVGPKGATIKRIQQQTHTYIVTPSRDKEPVFEVTGMPENVDRAREEIEGHI", "note": "[M65G]", "abundance fitness": "-0.049 ± 0.049"}, {"variant": "GQTTVQVRVPYRVVGLVVGPKGATIKRIQQQTHTYIVTPSRDKEPVFEVTGMPENVDRAREEIEHHI", "note": "[M65H]", "abundance fitness": "0.125 ± 0.084"}, {"variant": "GQTTVQVRVPYRVVGLVVGPKGATIKRIQQQTHTYIVTPSRDKEPVFEVTGMPENVDRAREEIEIHI", "note": "[M65I]", "abundance fitness": "-0.099 ± 0.18"}, {"variant": "GQTTVQVRVPYRVVGLVVGPKGATIKRIQQQTHTYIVTPSRDKEPVFEVTGMPENVDRAREEIEKHI", "note": "[M65K]", "abundance fitness": "0.224 ± 0.06"}, {"variant": "GQTTVQVRVPYRVVGLVVGPKGATIKRIQQQTHTYIVTPSRDKEPVFEVTGMPENVDRAREEIELHI", "note": "[M65L]", "abundance fitness": "-0.114 ± 0.054"}, {"variant": "GQTTVQVRVPYRVVGLVVGPKGATIKRIQQQTHTYIVTPSRDKEPVFEVTGMPENVDRAREEIENHI", "note": "[M65N]", "abundance fitness": "0.033 ± 0.18"}, {"variant": "GQTTVQVRVPYRVVGLVVGPKGATIKRIQQQTHTYIVTPSRDKEPVFEVTGMPENVDRAREEIEPHI", "note": "[M65P]", "abundance fitness": "-0.699 ± 0.2"}, {"variant": "GQTTVQVRVPYRVVGLVVGPKGATIKRIQQQTHTYIVTPSRDKEPVFEVTGMPENVDRAREEIEQHI", "note": "[M65Q]", "abundance fitness": "0.225 ± 0.076"}, {"variant": "GQTTVQVRVPYRVVGLVVGPKGATIKRIQQQTHTYIVTPSRDKEPVFEVTGMPENVDRAREEIERHI", "note": "[M65R]", "abundance fitness": "0.216 ± 0.05"}, {"variant": "GQTTVQVRVPYRVVGLVVGPKGATIKRIQQQTHTYIVTPSRDKEPVFEVTGMPENVDRAREEIESHI", "note": "[M65S]", "abundance fitness": "0.12 ± 0.058"}, {"variant": "GQTTVQVRVPYRVVGLVVGPKGATIKRIQQQTHTYIVTPSRDKEPVFEVTGMPENVDRAREEIETHI", "note": "[M65T]", "abundance fitness": "0.004 ± 0.08"}, {"variant": "GQTTVQVRVPYRVVGLVVGPKGATIKRIQQQTHTYIVTPSRDKEPVFEVTGMPENVDRAREEIEVHI", "note": "[M65V]", "abundance fitness": "-0.449 ± 0.067"}, {"variant": "GQTTVQVRVPYRVVGLVVGPKGATIKRIQQQTHTYIVTPSRDKEPVFEVTGMPENVDRAREEIEWHI", "note": "[M65W]", "abundance fitness": "-0.184 ± 0.074"}, {"variant": "GQTTVQVRVPYRVVGLVVGPKGATIKRIQQQTHTYIVTPSRDKEPVFEVTGMPENVDRAREEIEYHI", "note": "[M65Y]", "abundance fitness": "0.366 ± 0.11"}, {"variant": "GQTTVQVRVPYRVVGLVVGPKGATIKRIQQQTHTYIVTPSRDKEPVFEVTGMPENVDRAREEIEMCI", "note": "[H66C]", "abundance fitness": "0.089 ± 0.099"}, {"variant": "GQTTVQVRVPYRVVGLVVGPKGATIKRIQQQTHTYIVTPSRDKEPVFEVTGMPENVDRAREEIEMDI", "note": "[H66D]", "abundance fitness": "-0.625 ± 0.17"}, {"variant": "GQTTVQVRVPYRVVGLVVGPKGATIKRIQQQTHTYIVTPSRDKEPVFEVTGMPENVDRAREEIEMEI", "note": "[H66E]", "abundance fitness": "-0.143 ± 0.14"}, {"variant": "GQTTVQVRVPYRVVGLVVGPKGATIKRIQQQTHTYIVTPSRDKEPVFEVTGMPENVDRAREEIEMFI", "note": "[H66F]", "abundance fitness": "0.135 ± 0.14"}]}]}
